According to publication PMC3592468:

Substrate: C[C@@H](O)[C@H](N)C(=O)O
Test: purified protein
Format: biochemical, Saccharomyces cerevisiae
Details: 2.5 mM ATP, 2 mM PPi, 10 mM MgCl2, pH 7.5, 30 °C, no tRNA

B1: ScThrRS (Saccharomyces cerevisiae S288C) (protein)
chain: MSASEAGVTEQVKKLSVKDSSNDAVKPNKKENKKSKQQSLYLDPEPTFIEERIEMFDRLQKEYNDKVASMPRVPLKIVLKDGAVKEATSWETTPMDIAKGISKSLADRLCISKVNGQLWDLDRPFEGEANEEIKLELLDFESDEGKKVFWHSSAHVLGESCECHLGAHICLGPPTDDGFFYEMAVRDSMKDISESPERTVSQADFPGLEGVAKNVIKQKQKFERLVMSKEDLLKMFHYSKYKTYLVQTKVPDGGATTVYRCGKLIDLCVGPHIPHTGRIKAFKLLKNSSCYFLGDATNDSLQRVYGISFPDKKLMDAHLKFLAEASMRDHRKIGKEQELFLFNEMSPGSCFWLPHGTRIYNTLVDLLRTEYRKRGYEEVITPNMYNSKLWETSGHWANYKENMFTFEVEKETFGLKPMNCPGHCLMFKSRERSYRELPWRVADFGVIHRNEFSGALSGLTRVRRFQQDDAHIFCTHDQIESEIENIFNFLQYIYGVFGFEFKMELSTRPEKYVGKIETWDAAESKLESALKKWGGNWEINAGDGAFYGPKIDIMISDALRRWHQCATIQLDFQLPNRFELEFKSKDQDSESYERPVMIHRAILGSVERMTAILTEHFAGKWPFWLSPRQVLVVPVGVKYQGYAEDVRNKLHDAGFYADVDLTGNTLQKKVRNGQMLKYNFIFIVGEQEMNEKSVNIRNRDVMEQQGKNATVSVEEVLKQLRNLKDEKRGDNVLA
Km: 0.21 ± 0.02 mM
kcat: 1.72 ± 0.21 s⁻¹
kcat/Km: 8190 M⁻¹ s⁻¹
